Data reported in IntAct's records for PubMed 31515488.

B1: Protein BANP (Homo sapiens), Q8N9N5 (parent)
chain: MMSEHDLADVVQIAVEDLSPDHPVVLENHVVTDEDEPALKRQRLEINCQDPSIKTICLRLDSIEAKLQALEATCKSLEEKLDLVTNKQHSPIQVPMVAGSPLGATQTCNKVRCVVPQTTVILNNDRQNAIVAKMEDPLSNRAPDSLENVISNAVPGRRQNTIVVKVPGQEDSHHEDGESGSEASDSVSSCGQAGSQSIGSNVTLITLNSEEDYPNGTWLGDENNPEMRVRCAIIPSDMLHISTNCRTAEKMALTLLDYLFHREVQAVSNLSGQGKHGKKQLDPLTIYGIRCHLFYKFGITESDWYRIKQSIDSKCRTAWRRKQRGQSLAVKSFSRRTPNSSSYCPSEPMMSTPPPASELPQPQPQPQALHYALANAQQVQIHQIGEDGQVQVGHLHIAQVPQGEQVQITQDSEGNLQIHHVGQDGQLLEATRIPCLLAPSVFKASSGQVLQGAQLIAVASSDPAAAGVDGSPLQGSDIQVQYVQLAPVSDHTAGAQTAEALQPTLQPEMQLEHGAIQIQ
partner: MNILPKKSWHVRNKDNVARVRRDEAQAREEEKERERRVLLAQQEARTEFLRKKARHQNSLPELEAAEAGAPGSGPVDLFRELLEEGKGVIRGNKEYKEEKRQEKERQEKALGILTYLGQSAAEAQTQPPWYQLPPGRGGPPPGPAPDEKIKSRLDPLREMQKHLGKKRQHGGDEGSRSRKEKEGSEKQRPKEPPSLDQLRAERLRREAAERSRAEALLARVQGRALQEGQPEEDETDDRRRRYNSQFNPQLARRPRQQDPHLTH
B2: Cyclin-D1-binding protein 1 (Homo sapiens), O95273 (parent)
chain: MASATAPAAAVPTLASPLEQLRHLAEELRLLLPRVRVGEAQETTEEFNREMFWRRLNEAAVTVSREATTLTIVFSQLPLPSPQETQKFCEQVHAAIKAFIAVYYLLPKDQGITLRKLVRGATLDIVDGMAQLMEVLSVTPTQSPENNDLISYNSVWVACQQMPQIPRDNKAAALLMLTKNVDFVKDAHEEMEQAVEECDPYSGLLNDTEENNSDNHNHEDDVLGFPSNQDLYWSEDDQELIIPCLALVRASKACLKKIRMLVAENGKKDQVAQLDDIVDISDEISPSVDDLALSIYPPMCHLTVRINSAKLVSVLKKALEITKASHVTPQPEDSWIPLLINAIDHCMNRIKELTQSELEL
partner: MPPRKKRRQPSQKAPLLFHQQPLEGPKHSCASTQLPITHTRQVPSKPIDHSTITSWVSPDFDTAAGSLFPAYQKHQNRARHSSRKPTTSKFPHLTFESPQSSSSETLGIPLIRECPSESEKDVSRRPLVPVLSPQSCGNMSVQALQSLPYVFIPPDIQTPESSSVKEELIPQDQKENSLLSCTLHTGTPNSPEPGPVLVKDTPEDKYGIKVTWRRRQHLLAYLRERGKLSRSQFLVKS
B3: Vesicle transport through interaction with t-SNAREs homolog 1B (Homo sapiens), Q9UEU0 (parent)
chain: MASSAASSEHFEKLHEIFRGLHEDLQGVPERLLGTAGTEEKKKLIRDFDEKQQEANETLAEMEEELRYAPLSFRNPMMSKLRNYRKDLAKLHREVRSTPLTATPGGRGDMKYGIYAVENEHMNRLQSQRAMLLQGTESLNRATQSIERSHRIATETDQIGSEIIEELGEQRDQLERTKSRLVNTSENLSKSRKILRSMSRKVTTNKLLLSIIILLELAILGGLVYYKFFRSH
partner: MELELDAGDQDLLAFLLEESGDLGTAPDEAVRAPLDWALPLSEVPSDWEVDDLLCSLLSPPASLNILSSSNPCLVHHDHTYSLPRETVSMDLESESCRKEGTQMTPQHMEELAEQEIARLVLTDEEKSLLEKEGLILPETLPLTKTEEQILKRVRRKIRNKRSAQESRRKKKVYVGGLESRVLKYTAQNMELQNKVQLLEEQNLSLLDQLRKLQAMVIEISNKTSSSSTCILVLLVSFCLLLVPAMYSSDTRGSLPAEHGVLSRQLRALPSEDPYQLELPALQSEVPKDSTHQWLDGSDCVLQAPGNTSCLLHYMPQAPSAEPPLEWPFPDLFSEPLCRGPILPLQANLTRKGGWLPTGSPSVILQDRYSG
B4: Protein BANP (Homo sapiens), Q8N9N5-2 (parent)
chain: MMSEHDLADVVQIAVEDLSPDHPVVLENHVVTDEDEPALKRQRLEINCQDPSIKSFLYSINQTICLRLDSIEAKLQALEATCKSLEEKLDLVTNKQHSPIQVPMVAGSPLGATQTCNKVRCAVPGRRQNTIVVKVPGQEDSHHEDGESGSEASDSVSSCGQAGSQSIGSNVTLITLNSEEDYPNGTWLGDENNPEMRVRCAIIPSDMLHISTNCRTAEKMALTLLDYLFHREVQAVSNLSGQGKHGKKQLDPLTIYGIRCHLFYKFGITESDWYRIKQSIDSKCRTAWRRKQRGQSLAVKSFSRRTPNSSSYCPSEPMMSTPPPASELPQPQPQPQALHYALANAQQVQIHQIGEDGQVQVIPQGHLHIAQVPQGEQVQITQDSEGNLQIHHVGQDGQVLQGAQLIAVASSDPAAAGVDGSPLQGSDIQVQYVQLAPVSDHTAGAQTAEALQPTLQPEMQLEHGAIQIQ
partner: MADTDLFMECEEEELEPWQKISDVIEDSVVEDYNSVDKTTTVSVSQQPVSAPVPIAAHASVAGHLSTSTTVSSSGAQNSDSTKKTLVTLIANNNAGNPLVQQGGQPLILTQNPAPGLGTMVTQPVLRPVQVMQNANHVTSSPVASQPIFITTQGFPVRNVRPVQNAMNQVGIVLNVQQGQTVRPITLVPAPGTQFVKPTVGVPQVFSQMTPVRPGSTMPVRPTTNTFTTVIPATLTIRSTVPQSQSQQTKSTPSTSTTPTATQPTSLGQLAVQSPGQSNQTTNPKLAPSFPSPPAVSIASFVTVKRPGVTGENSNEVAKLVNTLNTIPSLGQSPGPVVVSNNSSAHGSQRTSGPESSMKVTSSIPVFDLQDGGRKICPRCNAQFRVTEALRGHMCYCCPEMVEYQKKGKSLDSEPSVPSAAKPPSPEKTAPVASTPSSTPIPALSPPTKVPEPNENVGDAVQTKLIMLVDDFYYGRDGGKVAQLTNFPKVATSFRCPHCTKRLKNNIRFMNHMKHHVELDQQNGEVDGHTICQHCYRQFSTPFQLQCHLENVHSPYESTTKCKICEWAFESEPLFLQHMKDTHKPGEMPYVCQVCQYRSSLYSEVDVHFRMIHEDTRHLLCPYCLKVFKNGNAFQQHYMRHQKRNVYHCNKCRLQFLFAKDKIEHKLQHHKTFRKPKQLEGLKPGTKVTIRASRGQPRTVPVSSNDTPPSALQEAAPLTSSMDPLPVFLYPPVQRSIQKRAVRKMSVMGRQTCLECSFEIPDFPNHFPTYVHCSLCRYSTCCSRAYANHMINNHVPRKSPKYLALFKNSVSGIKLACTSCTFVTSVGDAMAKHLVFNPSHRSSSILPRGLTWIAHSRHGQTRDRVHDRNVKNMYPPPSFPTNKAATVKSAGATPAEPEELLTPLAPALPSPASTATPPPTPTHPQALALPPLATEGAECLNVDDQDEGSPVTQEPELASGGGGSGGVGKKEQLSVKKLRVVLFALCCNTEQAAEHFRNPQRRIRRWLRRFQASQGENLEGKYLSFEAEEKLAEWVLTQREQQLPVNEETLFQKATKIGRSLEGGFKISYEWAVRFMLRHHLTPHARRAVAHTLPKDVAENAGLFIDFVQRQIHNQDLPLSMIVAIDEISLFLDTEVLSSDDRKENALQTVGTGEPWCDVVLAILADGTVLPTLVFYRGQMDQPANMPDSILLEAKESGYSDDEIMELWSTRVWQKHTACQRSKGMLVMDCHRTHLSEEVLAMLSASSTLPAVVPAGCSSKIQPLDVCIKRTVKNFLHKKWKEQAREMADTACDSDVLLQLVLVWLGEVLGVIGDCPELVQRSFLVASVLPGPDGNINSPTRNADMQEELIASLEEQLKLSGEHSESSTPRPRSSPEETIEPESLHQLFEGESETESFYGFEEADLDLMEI
B5: Pre-B-cell leukemia transcription factor 4 (Homo sapiens), Q9BYU1 (parent)
chain: MAAPPRPAPSPPAPRRLDTSDVLQQIMAITDQSLDEAQARKHALNCHRMKPALFSVLCEIKEKTVVSIRGIQDEDPPDAQLLRLDNMLLAEGVCRPEKRGRGGAVARAGTATPGGCPNDNSIEHSDYRAKLSQIRQIYHSELEKYEQACREFTTHVTNLLQEQSRMRPVSPKEIERMVGAIHGKFSAIQMQLKQSTCEAVMTLRSRLLDARRKRRNFSKQATEVLNEYFYSHLNNPYPSEEAKEELARKGGLTISQVSNWFGNKRIRYKKNMGKFQEEATIYTGKTAVDTTEVGVPGNHASCLSTPSSGSSGPFPLPSAGDAFLTLRTLASLQPPPGGGCLQSQAQGSWQGATPQPATASPAGDPGSINSSTSN

Variants of: B1
Conditions: with leng1_human LENG1, Q96BZ8

effect of a mutation on the interaction	Variant
with no effect	MMSEHDLADVVQIAVEDLSPDHPVVLENHVVTDEDEPALKRQRLEINCQDPSIKTICLRLDSIEAKLQALEATCKSLEEKLDLVTNKQHSPIQVPMVAGSPLGATQTCNKVRCVVPQTTVILNNDRQNAIVAKMEDPLSNRAPDSLENVISNAVPGRRQNTIVVKVPGQEDSHHEDGESGSEASDSVSSCGQAGSQSIGSNVTLITLNSEEDYPNGTWLGDENNPEMRVRCAIIPSDMLHISTNCRTAEKMALTLLDYLFHREVQAVSNLSGQGKHGKKQLDPLTIYGIRCHLFYKFGITESDWYRIKQSIDSKCRTAWRRKQRGQSLAVKSFSRRTPNSSSYCPSESMMSTPPPASELPQPQPQPQALHYALANAQQVQIHQIGEDGQVQVGHLHIAQVPQGEQVQITQDSEGNLQIHHVGQDGQLLEATRIPCLLAPSVFKASSGQVLQGAQLIAVASSDPAAAGVDGSPLQGSDIQVQYVQLAPVSDHTAGAQTAEALQPTLQPEMQLEHGAIQIQ [P348S]

Variants of: B2
Conditions: with rhno1_human RHNO1, Q9BSD3

effect of a mutation on the interaction	Variant
disrupting interaction strength	MASATAPAAAVPTLASPLEQLRHLAEELRLLLPRVRVGEAQETTEEFNREMFWRRLNEAAVTVSREATTLTIVFSQLPLPSPQETQKFCEQVHAAIKAFIAVYYLLPKDQGITLRKLVRGATLDIVDGMAQLMEVLSVTPTQSPENNDLISYNSVWVACQQMPQIPRDNKAAALLMLTKNVDFVKDAHEEMEQAVEECDPYSGLLNDTEENNSDNHNHEDDVLGFPSNQDLYWSEDDQELIIPCLALVRASKACLKKIRMLVAENGKKDQVAQLDDTVDISDEISPSVDDLALSIYPPMCHLTVRINSAKLVSVLKKALEITKASHVTPQPEDSWIPLLINAIDHCMNRIKELTQSELEL [I277T]

Variants of: B3
Conditions: with creb3_human CREB3, O43889

effect of a mutation on the interaction	Variant
with no effect	MASSAASSEHFEKLHEIFRGLHEDLQGVPERLLGTAGTEEKKKLIRDFDEKQQEANETLAEMEEELRYAPLSFRNPMMSKLRNYRKDLAKLHREVRSTPLTATPGGRGDMKYGIYAVENEHMNQLQSQRAMLLQGTESLNRATQSIERSHRIATETDQIGSEIIEELGEQRDQLERTKSRLVNTSENLSKSRKILRSMSRKVTTNKLLLSIIILLELAILGGLVYYKFFRSH [R124Q]
with no effect	MASSAASSEHFEKLHEIFRGLHEDLQGVPERLLGTAGTEEKKKLIRDFDEKQQEANETLAEMEEELRYAPLSFRNPMMSKLRNYRKDLAKLHREVRSTPLTATPGGRGDMKYGIYAVENEHMNRLQSQRAMLLQGTESLNRATQSIERSHRIATETDQIGSEIIEELGEQRDQLEHTKSRLVNTSENLSKSRKILRSMSRKVTTNKLLLSIIILLELAILGGLVYYKFFRSH [R176H]

Variants of: B4
Conditions: with pogz_human POGZ

effect of a mutation on the interaction	Variant
with no effect	MMSEHDLADVVQIAVEDLSPDHPVVLENHVVTDEDEPALKRQRLEINCQDPSIKSFLYSINQTICLRLDSIEAKLQALEATCKSLEEKLDLVTNKQHSPIQVPMVAGSPLGATQTCNKVRCAVPGRRQNTIVVKVPGQEDSHHEDGESGSEASDSVSSCGQVGSQSIGSNVTLITLNSEEDYPNGTWLGDENNPEMRVRCAIIPSDMLHISTNCRTAEKMALTLLDYLFHREVQAVSNLSGQGKHGKKQLDPLTIYGIRCHLFYKFGITESDWYRIKQSIDSKCRTAWRRKQRGQSLAVKSFSRRTPNSSSYCPSEPMMSTPPPASELPQPQPQPQALHYALANAQQVQIHQIGEDGQVQVIPQGHLHIAQVPQGEQVQITQDSEGNLQIHHVGQDGQVLQGAQLIAVASSDPAAAGVDGSPLQGSDIQVQYVQLAPVSDHTAGAQTAEALQPTLQPEMQLEHGAIQIQ [A162V]

Variants of: B5
Conditions: with tfp11_human TFIP11, Q9UBB9
Chain of tfp11_human TFIP11, Q9UBB9 (Q9UBB9 whole entry): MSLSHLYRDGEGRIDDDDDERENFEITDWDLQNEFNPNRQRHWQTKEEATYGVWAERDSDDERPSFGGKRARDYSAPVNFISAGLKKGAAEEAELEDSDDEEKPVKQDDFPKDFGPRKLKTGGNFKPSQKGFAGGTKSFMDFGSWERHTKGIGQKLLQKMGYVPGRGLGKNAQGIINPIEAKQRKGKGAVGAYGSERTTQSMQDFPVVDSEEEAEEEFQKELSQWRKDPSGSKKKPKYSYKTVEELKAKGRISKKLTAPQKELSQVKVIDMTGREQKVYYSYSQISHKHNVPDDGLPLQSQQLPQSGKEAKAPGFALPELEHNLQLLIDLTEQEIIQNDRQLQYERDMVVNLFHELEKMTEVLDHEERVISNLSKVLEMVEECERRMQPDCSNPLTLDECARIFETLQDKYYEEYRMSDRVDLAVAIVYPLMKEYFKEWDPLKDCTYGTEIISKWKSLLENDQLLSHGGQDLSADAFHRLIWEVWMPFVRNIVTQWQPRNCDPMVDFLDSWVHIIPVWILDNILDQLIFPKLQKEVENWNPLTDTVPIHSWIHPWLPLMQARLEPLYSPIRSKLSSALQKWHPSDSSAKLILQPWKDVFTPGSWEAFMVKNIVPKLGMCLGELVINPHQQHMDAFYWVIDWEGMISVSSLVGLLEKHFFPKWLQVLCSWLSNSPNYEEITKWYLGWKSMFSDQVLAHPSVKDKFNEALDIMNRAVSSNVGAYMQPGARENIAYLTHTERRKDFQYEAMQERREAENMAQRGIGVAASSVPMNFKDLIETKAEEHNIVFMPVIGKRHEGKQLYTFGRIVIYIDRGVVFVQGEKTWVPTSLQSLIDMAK

effect of a mutation on the interaction	Variant
with no effect	MAAPPRPAPSPPAPRRLDTSDVLQQIMAITDQSLDEAQARKHALNCHRMKPALFSVLCEIKEKTVVSIRGIQDEDPPDAQLLRLDNMLLAEGVCRPEKRGRGGAVARAGTATPGGCPNDNSIEHSDYRAKLSQIRQIYHSELEKYEQACREFTMHVTNLLQEQSRMRPVSPKEIERMVGAIHGKFSAIQMQLKQSTCEAVMTLRSRLLDARRKRRNFSKQATEVLNEYFYSHLNNPYPSEEAKEELARKGGLTISQVSNWFGNKRIRYKKNMGKFQEEATIYTGKTAVDTTEVGVPGNHASCLSTPSSGSSGPFPLPSAGDAFLTLRTLASLQPPPGGGCLQSQAQGSWQGATPQPATASPAGDPGSINSSTSN [T154M]
